From US9283300B2, “Use of midkine protein and the protein-containing medical device” (GENERAL REGENERATIVES, LTD, priority 2009, dated 2016)
Where “and” joins values, the source holds several entries; their conditions need not be identical. Equal values may be shown once.

What was measured:
[1] = system: partial-thickness injury of rabbit knee cartilage; assay: Partial-thickness cartilage defect of adult rabbit knee joint, intra-articular rhMK; format: in vivo, New Zealand white rabbits; details: adult rabbit knee cartilage partial-thickness injury model, 4 and 9 weeks after surgery, versus saline side
Method: Method. 9˜10-month-old male New Zealand white rabbits (3.0˜3.5 kg weight) were anesthetized with 3% pentobarbital sodium (30 mg/kg) by ear vein injection. After anesthesia, the skin was prepared on both sides of the knees. With conventional surgical sterilization and under sterile conditions, the inner side of the knees was cut to expose the femoral condyle surface. A hand-drill was used to make a partial-thickness cartilage injury of 3 mm in diameter on the femoral condyle surface. The partial-thickness injury was created by the criterion of no bleeding in the injured cartilage hole. The wound was sutured with 4-0 lines. 400,000 units penicillin was injected every day for one week to prevent the wound site infection. 24 h after the surgery, normal saline or rhMK was injected into the knee-articular cavity. Partial-thickness cartilage damages were created on both rabbit knees. One knee received 0.5 ml saline as control side, while 0.5 ml rhMK was given into the other knees as treatment side. The injections were given three times a week, for 2 weeks totally. The rabbits were kept in cage and allowed freedom of movement without the knee fixed. 4 and 9 weeks after the surgery, rabbits were sacrificed. The knee-joint cartilage tissues were removed for routine biopsy, H&E, and toluidine blue staining, and their histological changes were analyzed under microscope.

[2] = system: rat articular chondrocyte; assay: Cell expansion in passaged monolayer culture; format: cell-based
Method: (§1) 1. Preparation of primary chondrocyte. The 8-week-old male SD rats were sacrificed under sterile conditions. The articular cartilage, fibrocartilage and elastic cartilage tissue were isolated from the femur joints, meniscus and outer ear respectively using a scalpel. The isolated cartilage were cut into small pieces, washed twice with phosphate buffered saline (PBS), and digested with trypsin (0.25% (w/v) trypsin/0.02% (w/v) EDTA) at 37° C. for 30 min. The articular cartilage and elastic cartilage were further digested with 0.2% type II collagenase for additional 16 h, and the fibrocartilage were further digested with 0.15% type I collagenase for additional 16 h. After digestion, three chondrocytes were passed through 100 μm filter (Falcon, USA) into 15 ml centrifuge tubes, centrifuged at room temperature at 2000 rpm for 5 min. Cells were resuspended in DMEM containing 10% FBS (fetal bovine serum). Trypan blue staining of the freshly isolated cells was used to monitor the percentage of live cells under the microscope. When the number of live cells is more than 95%, it was used for subsequent experiments.
(§2) 3. Culture of primary chondrocytes in monolayer. Three types of primary chondrocytes were suspended in DMEM medium containing 10% FBS, adjusted to 5×10^4 cells/ml, added to 6-well plate with 2 ml medium/well, and incubated in 37° C. at 5% CO2. Experiment was divided into two groups: control group and experimental group (with 3 μg/ml rhMK). Cell medium was changed every two days. When the cells grew to the confluence of 85% to 90%, the cells were collected by trypsin digestion, washed in PBS by centrifugation. The cells were resuspended in DMEM containing 10% FBS. Cell survival was monitored by trypan blue staining. Part of the cells were used for cell passage; some were for RNA extraction; some were cytospined onto a glass slide for later immunohistochemical staining and the slides were stored at −80° C. Primary cells or passage 0 (P0) were cultured for 7 days. The newly passaged cells were further cultured in a 6-well plate for 3 days which was then collected by trypsin-digestion and marked as passage P1. The cell amplification at each passage=total number of cells at output/total number of cells at initial input.

[3] = system: rat auricular chondrocyte; assay: Cell expansion in passaged monolayer culture; format: cell-based
Method: as §1, §2

rat fibrochondrocyte = assay: Cell expansion in passaged monolayer culture; format: cell-based
Method: as §1, §2

[4] = system: rat auricular chondrocytes; assay: Phenotype of chondrocytes in monolayer culture (semi-quantitative PCR of Col2a1, collagen II immunohistochemical staining); format: cell-based
Method: as §2, with “input. 6. Immunohistochemical staining. […] RNA extraction and semi-quantitative PCR. […] PCR products were separated on 1.5% (w/v) agarose gels and quantified after staining with ethidium bromide in comparison with internal control gene expression of β-actin.” for “input.”

[5] = system: rat fibrochondrocyte and articular chondrocyte; assay: Phenotype of chondrocytes in monolayer culture (semi-quantitative PCR, collagen II immunohistochemical staining); format: cell-based; details: passages P0-P2, Col2a1/collagen II
Method: as §2, with “input. 6. Immunohistochemical staining. […] RNA extraction and semi-quantitative PCR. […] PCR products were separated on 1.5% (w/v) agarose gels and quantified after staining with ethidium bromide in comparison with internal control gene expression of β-actin.” for “input.”

[6] = P0, rhMK 3 μg/ml versus no rhMK
[7] = P1, rhMK 3 μg/ml versus no rhMK
[8] = P2, rhMK 3 μg/ml versus no rhMK

B1: rhMK: recombinant human midkine mature protein (SEQ ID NO.1) expressed in E. coli and purified by ion-exchange chromatography (protein, listed as Homo sapiens)
chain: MKKKDKVKKGGPGSECAEWAWGPCTPSSKDCGVGFREGTCGAQTQRIRCRVPCNWKKEFGADCKYKFENWGACDGGTGTKVRQGTLKKARYNAQCQETIRVTKPCTPKTKAKAKAKKGKGKD
- repair of injured cartilage (histology) [1]: repairs the injured cartilage with regenerated cartilage tissues
- Cell expansion (in fold) ([2]; P0, rhMK 3 μg/ml): 13.5 ± 1.2 fold
- Proliferation rate (%) [2, 6]: 112%
- Cell expansion (in fold) ([2]; P1, rhMK 3 μg/ml): 12.0 ± 1.4 fold
- Proliferation rate (%) [2, 7]: 74%
- Cell expansion (in fold) ([2]; P2, rhMK 3 μg/ml): 11.5 ± 0.5 fold
- Proliferation rate (%) [2, 8]: 48%
- Cell expansion (in fold) ([3]; P0, rhMK 3 μg/ml): 7.9 ± 0.1 fold
- Proliferation rate (%) [3, 6]: 65%
- Cell expansion (in fold) ([3]; P1, rhMK 3 μg/ml): 16.1 ± 1.1 fold
- Proliferation rate (%) [3, 7]: 66%
- Cell expansion (in fold) ([3]; P2, rhMK 3 μg/ml): 8.2 ± 1.0 fold
- Proliferation rate (%) [3, 8]: 55%
- Cell expansion (in fold) (rat fibrochondrocyte; P0, rhMK 3 μg/ml): 5.3 ± 1.3 fold
- Proliferation rate (%) (rat fibrochondrocyte; [6]): 112% and 110%
- Cell expansion (in fold) (rat fibrochondrocyte; P1, rhMK 3 μg/ml): 28.1 ± 3.4 fold
- Proliferation rate (%) (rat fibrochondrocyte; [7]): 51%
- Cell expansion (in fold) (rat fibrochondrocyte; P2, rhMK 3 μg/ml): 20.9 ± 0.9 fold
- Proliferation rate (%) (rat fibrochondrocyte; [8]): 35%
- effect on Col2a1 expression (semiquantitative PCR) ([4]; auricular chondrocyte after one passage): inhibited the decreasing of the Col2a1
- chondrocytes stained collagen II positive ([4]; auricular chondrocytes, passage one, rhMK group, not detected without rhMK): about 50%
- effect on the phenotype of fibrochondrocyte and articular chondrocyte [5]: no significant effect
